Results: the supplement of paper PMC11780869

Tested on: Bacillus subtilis
Test: cleaved RNA product abundance (RNA/gDNA barcode ratio) relative to median wild-type variant (ratio to wild type); higher = more accumulation of the downstream cleavage product
How it was run: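 Oligos with a 9% error rate were used to build barcoded, mutagenized RNase Y cleavage-site windows within truncated aprE or tetM reporter mRNAs, which were integrated into the B. subtilis chromosome. Cultures were grown in LB at 37°C between OD600 0.0003 and 0.3. Cleaved RNA was gel-selected, reverse transcribed and barcode-sequenced, as were genomic DNA barcodes, and UMIs were collapsed. Cleaved product abundance is the scaled RNA:gDNA barcode ratio, with the median construct carrying the unmutated site as reference.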

[1] = experiment (reporter, strain, medium): exp 8a: truncated aprE reporter, strain BJT201 with 2% xylose (RNase J1 expressed), cleavage site: glnRA (positions -5 to +31 mutated)
[2] = experiment (reporter, strain, medium): exp 4a: truncated aprE reporter, strain BJT201 with 2% xylose (RNase J1 expressed), cleavage site: cggR-gapA (positions -7 to +36 mutated)
[3] = experiment (reporter, strain, medium): exp 2b: truncated aprE reporter, strain BJT200, cleavage site: cggR-gapA (positions -7 to +36 mutated)

Sequence: CGACATGTCCCGCTTCTTTCATTAATCCGTTAGCAACTGTTTTGCAATATACATTTACCCTTTAAGAGGAGGAAT
- cleaved RNA product abundance [1]: 0.405

Sequence: ACAGACGAAGGAGCCGCAAAAAGGTTATTAAGGGATGAATAATCCCTCAATATAAATATCTCTCACTTATTTAAA
- cleaved RNA product abundance [2]: 1.68

Sequence: CGACATGTCCCGCTTCTTTCATTAATCCGTTAGCAACTGTTTTGATATATACATTAACCTTTTAAGAGGAGGAAT
- cleaved RNA product abundance [1]: 0.832

Sequence: CGACATGTCCCGCTTCTTTCATTAATCCGTTAGCAACTGCTTTGCTATATACATTTACCTTTTAAGAGGAGGAAT
- cleaved RNA product abundance [1]: 0.307

Sequence: CGACATGTCCCGCTTCTTTCATTACTCCGTTAGCAACTGTTTTGCTATAAACATTTACCTTTTAAGAGGAGGAAT
- cleaved RNA product abundance [1]: 0.608

Sequence: CGACATGTCCCGCTTCTTTCATTATTCTGTTAGCAACTGTTTAGCTATATACATTTACCTTTTAAGAGGAGGAAT
- cleaved RNA product abundance [1]: 0.759

Sequence: CGACATGTCCCGCTTCTTTCATTAATCCGTTAGCAACTGTGTTTCTATATACATTTAACTTTTAAGAGGAGGAAT
- cleaved RNA product abundance [1]: 0.453

Sequence: ACAGACGAAGGAGCCGCAAAGAAGTTATTAAGGGATGATTAAACCCTCAATATAAATATCTCTCACTTATTTAAA
- cleaved RNA product abundance [2]: 0.362

Sequence: CGACATGTCCCGCTTCTTTCATTAATCCGTTAGCAACTGTTTTGCAATATAGATTTACCTTTTAAGAGGAGGAAT
- cleaved RNA product abundance [1]: 0.599

Sequence: CGACATGTCCCGCTTCTTTCATTACTACGTTAGCAACTGTTTTGCTATATATATTTACCTTTTAAGAGGAGGAAT
- cleaved RNA product abundance [1]: 1.18

Sequence: CGACATGTCCCGCTTCTTTCATTAATCCGTGAGCAACTGTTTTGCTTTATACATTTACCTTTTAAGAGGAGGAAT
- cleaved RNA product abundance [1]: 0.184

Sequence: ACAGACGAAGGAGCCGCAAAGAAGATATTAAGGGATGAATAATCCCTCAATAAAAATATCTCTCACTTATTTAAA
- cleaved RNA product abundance [3]: 0.142

Sequence: ACAGACGAAGGAGCCGCATAGAAATTATTAAGGGATGAATAATCCCTCAATATAAATATCTCTCACTTATTTAAA
- cleaved RNA product abundance [3]: 0.834
- cleaved RNA product abundance [2]: 0.574

Sequence: CGACATGTCCCGCTTCTTTCATTAATCCGTTAGCAACCGTTTTGCTTTATACATTTACCTTTTAAGAGGAGGAAT
- cleaved RNA product abundance [1]: 0.145

Sequence: ACAGACGAAGGAGCCGCAAAGAAGTTATTAAAGGATGAATAATCCCTCGATATAAATATCTCTCACTTATTTAAA
- cleaved RNA product abundance [3]: 0.0861
- cleaved RNA product abundance [2]: 0.0487

Sequence: CGACATGTCCCGCTTCTTTCATTAATCGGTTATCAACTGTTTTGCTATATACATTTACCTTTTAAGAGGAGGAAT
- cleaved RNA product abundance [1]: 0.206

Sequence: ACAGACGAAGGAGCCGCAAAGTAGTTATTAATGGATGAATAATCCCTCAATATAAATATCTCTCACTTATTTAAA
- cleaved RNA product abundance [3]: 0.0916
- cleaved RNA product abundance [2]: 0.166

Sequence: CGACATGTCCCGCTTCTTTCATTAAACCGTTAGCAACTGTTTTGCTATATACATTTACTTTTTAAGAGGAGGAAT
- cleaved RNA product abundance [1]: 0.665

Sequence: ACAGACGAAGGAGCCGCAAAGAAGTTATTAAAGGATGTATAATCCCTCAATATAAATATCTCTCACTTATTTAAA
- cleaved RNA product abundance [2]: 0.177

Sequence: ACAGACGAAGGAGCCGCAAAGAAGTTATTAAGGGATGCATAATCACTCAATATAAATATCTCTCACTTATTTAAA
- cleaved RNA product abundance [3]: 0.0901
- cleaved RNA product abundance [2]: 0.109

Sequence: ACAGACGAAGGAGCCGCAAAGAACTTATTATGGGATGAATAATCCCTCAATATAAATATCTCTCACTTATTTAAA
- cleaved RNA product abundance [2]: 0.233

Sequence: CGACATGTCCCGCTTCTTTCATTAATCCGTCAGCAACTATTTTGCTATATACATTTACCTTTTAAGAGGAGGAAT
- cleaved RNA product abundance [1]: 0.387

Sequence: ACAGACGAAGGAGCCGCTAAGAAGTTATTAAGGGATGCATAATCCCTCAATATAAATATCTCTCACTTATTTAAA
- cleaved RNA product abundance [3]: 0.968
- cleaved RNA product abundance [2]: 0.814

Sequence: CGACATGTCCCGCTTCTTTCATTATTCCGTTAGCAACTGTTTTGCTATAGACATTTACCTTTTAAGAGGAGGAAT
- cleaved RNA product abundance [1]: 0.917

Sequence: ACAGACGAAGGAGCCGCAAACAAGATATTAAGGGATGAATAATCCCTCAATATAAATATCTCTCACTTATTTAAA
- cleaved RNA product abundance [2]: 0.827

Sequence: ACAGACGAAGGAGCCGCAAAGAAGTTATTAAGGGATGAATAACCCCTCTATATAAATATCTCTCACTTATTTAAA
- cleaved RNA product abundance [2]: 0.229

Sequence: ACAGACGAAGGAGCCGCAAAAAAGTTATTAAGGGATGAATAATCCCTCAAGATAAATATCTCTCACTTATTTAAA
- cleaved RNA product abundance [3]: 0.251

Sequence: ACAGACGAAGGAGCCGCAAAGAAGTTATTAAGGGAAGAATAATCCATCAATATAAATATCTCTCACTTATTTAAA
- cleaved RNA product abundance [3]: 0.114
- cleaved RNA product abundance [2]: 0.105

Sequence: ACAGACGAAGGAGCCGCAAAGAAGTTATTAAGTGATGAATAATCCCACAATATAAATATCTCTCACTTATTTAAA
- cleaved RNA product abundance [3]: 0.0986
- cleaved RNA product abundance [2]: 0.0805

Sequence: ACAGACGAAGGAGCCGCAAAGAAGCTATTAATGGATGAATAATCCCTCAATATAAATATCTCTCACTTATTTAAA
- cleaved RNA product abundance [2]: 0.123

Sequence: CGACATGTCCCGCTTCTTTCATTAAACCGTTAGCAACTGTTTTGCTATATACATTTTCCTTTTAAGAGGAGGAAT
- cleaved RNA product abundance [1]: 0.432

Sequence: ACAGACGAAGGAGCCGCAAAGAAGTTATTAACGGATGAATAATCCCTTAATATAAATATCTCTCACTTATTTAAA
- cleaved RNA product abundance [3]: 0.98
- cleaved RNA product abundance [2]: 0.671

Sequence: ACAGACGAAGGAGCCGCAAAGAAGTTATTAAGGTATGATTAATCCCTCAATATAAATATCTCTCACTTATTTAAA
- cleaved RNA product abundance [2]: 0.153

Sequence: ACAGACGAAGGAGCCGCAAAGAAGTTATTAAGGCATGAATAATCCCTTAATATAAATATCTCTCACTTATTTAAA
- cleaved RNA product abundance [3]: 0.411
- cleaved RNA product abundance [2]: 0.291

Sequence: ACAGACGAAGGAGCCGCAAAGAAGTGATTAAGGGATGAATAATCCCTCAATATAAATATCTCTCACTTATTTAAA
- cleaved RNA product abundance [3]: 0.318
- cleaved RNA product abundance [2]: 0.391
- cleaved RNA product abundance (experiment (reporter, strain, medium): exp 6: tetM reporter, strain 168, cleavage site: cggR-gapA (positions -7 to +36 mutated)): 0.274

Sequence: CGACATGTCCCGCTTCTTTCATTAATCCGTTATCAACTGTTTTGCTATATACATTTACGTTTTAAGAGGAGGAAT
- cleaved RNA product abundance [1]: 0.376

Sequence: ACAGACGAAGGAGCCGCAAAAAAGTTATTAAGGTATAAATAATCCCTCAATATAAATATCTCTCACTTATTTAAA
- cleaved RNA product abundance [2]: 0.0805

Sequence: ACAGACGAAGGAGCCGCAAAGAAGTTATTAAGGGATCGATAATCCCTCAATATAAATATCTCTCACTTATTTAAA
- cleaved RNA product abundance [3]: 0.652
- cleaved RNA product abundance [2]: 0.722

Sequence: ACAGACGAAGGAGCCGCAAAGAAGTTATTAATGGATGAATAATCCCTCAATATAATTATCTCTCACTTATTTAAA
- cleaved RNA product abundance [3]: 0.13
- cleaved RNA product abundance [2]: 0.108

Sequence: ACAGACGAAGGAGCCGCATAGAAGTTATTAAGGGATGAATAATCTCTCAATATAAATATCTCTCACTTATTTAAA
- cleaved RNA product abundance [3]: 1.08

Sequence: ACAGACGAAGGAGCCGCAAAGATGTTATTAAGGGATGAATAAACCCTCAATATAAATATCTCTCACTTATTTAAA
- cleaved RNA product abundance [2]: 0.275

Sequence: ACAGACGAAGGAGCCGCAAAGAAGTTATTAAGGGAAGAATAATCCCTCGATATAAATATCTCTCACTTATTTAAA
- cleaved RNA product abundance [2]: 0.521

Sequence: CGACATGTCCCGCTTCTTTCATTAATCCGTTAGCAACTGTTTTGCTATATTGATTTACCTTTTAAGAGGAGGAAT
- cleaved RNA product abundance [1]: 0.263

Sequence: ACAGACGAAGGAGCCGCAAAGAAGTTCTTAAGGGATGAATTATCCCTCAATATAAATATCTCTCACTTATTTAAA
- cleaved RNA product abundance [2]: 0.126

Sequence: ACAGACGAAGGAGCCGCAAAGAAGTTATTAAGGGATGAATAATATCTCAATATAAATATCTCTCACTTATTTAAA
- cleaved RNA product abundance [3]: 0.0986
- cleaved RNA product abundance [2]: 0.116

Sequence: CGACATGTCCCGCTTCTTTCATTAATCCGTTAGCTACTGTTTTGCTATATACATTTAACTTTTAAGAGGAGGAAT
- cleaved RNA product abundance [1]: 0.621

Sequence: ACAGACGAAGGAGCCGCAAAGAAGTTATTCAGGGATGAACAATCCCTCAATATAAATATCTCTCACTTATTTAAA
- cleaved RNA product abundance [2]: 0.603

Sequence: ACAGACGAAGGAGCCGCAAAGAAGTTAGTACGGGATGAATAATCCCTCAATATAAATATCTCTCACTTATTTAAA
- cleaved RNA product abundance [3]: 0.269

Sequence: CGACATGTCCCGCTTCTTTCATTAATCCTTTAGCAACTGTTTTGCGATATACATTTACTTTTTAAGAGGAGGAAT
- cleaved RNA product abundance [1]: 0.438

Sequence: CGACATGTCCCGCTTCTTTCATTACTCCGTTAGCAACTGCTTTGCTATATACATTTACCTTTTAAGAGGAGGAAT
- cleaved RNA product abundance [1]: 0.597

Sequence: ACAGACGAAGGAGCCGCAAAGAAGTTATTAAGGGATGAATAATACCTCAAAATAAATATCTCTCACTTATTTAAA
- cleaved RNA product abundance [2]: 0.155

Sequence: ACAGACGAAGGAGCCGCGAATAAGTTATTAAGGGATGAATAATCCCTCAATATAAATATCTCTCACTTATTTAAA
- cleaved RNA product abundance [3]: 1.19
- cleaved RNA product abundance [2]: 1.47

Sequence: CGACATGTCCCGCTTCTTTCATTAATTCGTTATCAACTGTTTTGCTATATACATTTACCTTTTAAGAGGAGGAAT
- cleaved RNA product abundance [1]: 0.31

Sequence: CGACATGTCCCGCTTCTTTCATTAATCCGTGAGCAACTGTTTTGCTATATACTTTTACCTTTTAAGAGGAGGAAT
- cleaved RNA product abundance [1]: 0.154

Sequence: ACAGACGAAGGAGCCGCAAAGAAGTTATAAAGGGATGAACAATCCCTCAATATAAATATCTCTCACTTATTTAAA
- cleaved RNA product abundance [3]: 0.261

Sequence: CGACATGTCCCGCTTCTTTCATTAATCAGTAAGCAACTGTTTTGCTATATACATTTACCTTTTAAGAGGAGGAAT
- cleaved RNA product abundance [1]: 0.489

Sequence: ACAGACGAAGGAGCCGCAAAGAAGTTATTGAGGGATGAATAATCCCTAAATATAAATATCTCTCACTTATTTAAA
- cleaved RNA product abundance [2]: 0.897

Sequence: ACAGACGAAGGAGCCGCAAAGAAGTTAATAAGGGAAGAATAATCCCTCAATATAAATATCTCTCACTTATTTAAA
- cleaved RNA product abundance [3]: 0.135
- cleaved RNA product abundance [2]: 0.17

Sequence: ACAGACGAAGGAGCCGCAAAGAAGTTATTAAGGGATGAATAACACCTCAATATAAATATCTCTCACTTATTTAAA
- cleaved RNA product abundance [2]: 0.164

Sequence: CGACATGTCCCGCTTCTTTCATTAATCCCTAAGCAACTGTTTTGCTATATACATTTACCTTTTAAGAGGAGGAAT
- cleaved RNA product abundance [1]: 0.229

Sequence: ACAGACGAAGGAGCCGCAAAAAAGTTATTAAGGGATGAATTATCCCTCAATATAAATATCTCTCACTTATTTAAA
- cleaved RNA product abundance [2]: 0.808
